Test results taken from the RNAGym collection of RNA variant scans (doi:10.7554/elife.80360).

B1: HDV Ribozyme (parent)
chain: GGCCGGCAUGGUCCCAGCCUCCUCGCUGGCGCCGGCUGGGCAACAUUCCGAGGGGACCGUCCCCUCGGUAAUGGCGAAUGGGACCCA

Variants of: B1
Assay: self-cleavage, relative activity (ratio to wild type); higher = more cleavage; co-transcriptional

Variant | self-cleavage
GGCCGGCAUGGUCCCAGCCUCCUCGCUGGCGCCGGCUGGGCAACAUUCCGAGGGGACCGUCCCCUCGGUCAUGGCGAGUGGGACCCA [A70C A78G] | 0.519
GGCCGGCAUUGUCCCAGCCUCCUCGCUGGCGCCGGCUGGGUAACAUUCCGAGGGGACCGUCCCCUCGGUAAUGGCGAAUGGGACCCA [G10U C41U] | 0.583
GGCCGGCAUGGGCCCAGCCUCCUCGCUGGCGCCGGCUGGGCAACAUUCCGAGGGGAUCGUCCCCUCGGUAAUGGCGAAUGGGACCCA [U12G C57U] | 0.831
GGCCGGCAUCGUCCCAGCCUCCUCGCCGGCGCCGGCUGGGCAACAUUCCGAGGGGACCGUCCCCUCGGUAAUGGCGAAUGGGACCCA [G10C U27C] | 0.942
GGCCGGCAUGGUCCCCGCCUCCUCGCUUGCGCCGGCUGGGCAACAUUCCGAGGGGACCGUCCCCUCGGUAAUGGCGAAUGGGACCCA [A16C G28U] | 0.0437
GGCCGGCAUGGUCCCAGCCUCCUCGCUGGCGACGGCUGGGCAACAUUCCGAGGGGACCGUCCCCUCGGUAAUGGCGAUUGGGACCCA [C32A A78U] | 0.0923
GGCCGGCAUGGUCCCAGCCGCCUCGCUGGCGCCGGCUGGGCAACAUUCCGCGGGGACCGUCCCCUCGGUAAUGGCGAAUGGGACCCA [U20G A51C] | 0.332
GGCCGGCAUGGUCCCAGCCUCCUCGCUGGCGCCGGCUGGGCAAACUUCCGAGGGGACCGUCCCCUCGGUAAUGGCGAAUGGGACCCA [C44A A45C] | 0.692
GGCCGGCAUGGUUCCAGCCUCCCCGCUGGCGCCGGCUGGGCAACAUUCCGAGGGGACCGUCCCCUCGGUAAUGGCGAAUGGGACCCA [C13U U23C] | 0.415
GGCCGGCAUGGUCCCAGCCUCCUCGCUGGCGCCGGCUGGGCAACAUUCCGAGGGGACCGUCCCCUCGGUAAUGGCGGAUGGGACCAA [A77G C86A] | 1.15
GGCCGGCAUGGUCCCAGCCUCCUCGCUGGCGCCGGCUGGGCAACAUUCCGAGGGGACCGUCCCCCCGCUAAUGGCGAAUGGGACCCA [U65C G68C] | 0.883
GGCCGGCAUGGUCCCAGCCUCCUCGCUGGCGGCGGCUGGGCAACAUUCCGAGGGGACCGUCCCCUCGGUAACGGCGAAUGGGACCCA [C32G U72C] | 0.104
GGCCGGCAUGGUCCCAGCCUCUUCGCAGGCGCCGGCUGGGCAACAUUCCGAGGGGACCGUCCCCUCGGUAAUGGCGAAUGGGACCCA [C22U U27A] | 0.227
GGCCGGCAUGGUCCCAGCCUCCUCGCUGGCGCCGGCUAGGCAACAUUCUGAGGGGACCGUCCCCUCGGUAAUGGCGAAUGGGACCCA [G38A C49U] | 0.119
GGCCGGAAUGGUCCCAGCCUCCUCGCUGGCGCCGGCUGGGCAACAUUCCGAGGGGACCGUCCCCUCGUUAAUGGCGAAUGGGACCCA [C7A G68U] | 0.623
GGCCGGCAUGGUCCCAGCCUCCUCGCUGGCGCCGGCUAGGCAACAUUGCGAGGGGACCGUCCCCUCGGUAAUGGCGAAUGGGACCCA [G38A C48G] | 0.148

Variant | self-cleavage
GGCCGGCAUGGUCCCAGCCUCCUCGCUGGCGCCGGUUGGCCAACAUUCCGAGGGGACCGUCCCCUCGGUAAUGGCGAAUGGGACCCA [C36U G40C] | 0.0959
CGCCGGCAUGGUCCCAGCCUCCUCGCUGGCGCCGGCUGGGCAACAUUCCGAGGGGACCGUCCCCUCGGAAAUGGCGAAUGGGACCCA [G1C U69A] | 0.0875
GGCCGGCAUGGUCCCAGCCUCCUCGCUGGCGCCGGCUGGGCAACAUUCCGAGGGGACCGUCCCCUCUGUAAAGGCGAAUGGGACCCA [G67U U72A] | 0.665
GGCCGGCAUGGUCCCAGCCUCCUCGCUGGCGCCGGCUGGGCAACAUUCCGAGGGGACCGUCUCCUCGGUAACGGCGAAUGGGACCCA [C62U U72C] | 0.636
GGCCGGCAUGGUCCCAGCCUCCUCGCUGGCGCAGGCUGGGCAACAUUCCGAGGGGACCGUCCCCUCGGAAAUGGCGAAUGGGACCCA [C33A U69A] | 0.325
GGCUGGCUUGGUCCCAGCCUCCUCGCUGGCGCCGGCUGGGCAACAUUCCGAGGGGACCGUCCCCUCGGUAAUGGCGAAUGGGACCCA [C4U A8U] | 0.415
GGCCGGCAUGGUCCCAGCCUCCUCGCUGGCGCCUGCUGGGCAACAUUCCGAGGGGACCGUCCCCUCGGUAAGGGCGAAUGGGACCCA [G34U U72G] | 0.297
GGCCGGCAUGGUCCCAGCCUCCUCGCUGGCGCCGGCUGGGCAACAUUCCGAAGGGACCGUGCCCUCGGUAAUGGCGAAUGGGACCCA [G52A C61G] | 0.897
GGCCGGCAUGGACCCAGCCUCCUCGCUGGCGCCGGCUGGGCAACAUUCCGAGGGGACCGUCACCUCGGUAAUGGCGAAUGGGACCCA [U12A C62A] | 0.458
GGCCGGCAUGGUCCCAGCCUCCUCGCUGGCGCCGGCUGGGUAACAUUCCGAGGGGACCGUCCCCUCGGUAAUCGCGAAUGGGACCCA [C41U G73C] | 0.507
GGCCUGCAUGGUCCCAGCCUCCUCGCUGGCGCCGGCUGGGCAACAUUCCGAGGGGACCGUCCCCUCGGUAAUGGCCAAUGGGACCCA [G5U G76C] | 0.227
GCCCGGCAUGGUCCCAGCCUCCUCGCUGGCGCCGGGUGGGCAACAUUCCGAGGGGACCGUCCCCUCGGUAAUGGCGAAUGGGACCCA [G2C C36G] | 0.26
GGCCGGCAUGGUCCCAGCCUCCUCGCUGGCGCCGGCUGGGCAACAUUCAGAGGGGACCGUCCCCUCGGUAAUGGCGAAAGGGACCCA [C49A U79A] | 1.05
GGCCGGCAUGGUCCCAGCCUCCUCGCUGGAGCCGGCUGGGCAACAUUCCGAGGGGACCGUCCCCUCCGUAAUGGCGAAUGGGACCCA [C30A G67C] | 0.318
GGCCGGCAUGGACCCAGCCUCCUCGCUGGCGCCGGCUGGGCAACAUUCCGAGGGGACCGUCCCCUGGGUAAUGGCGAAUGGGACCCA [U12A C66G] | 0.375
GGCCGGCAUGGUCCCAGCCUCCUCGCUGGCGGCGGCUGGGCAACAUUCCGAGGGGACCGUCCCCCCGGUAAUGGCGAAUGGGACCCA [C32G U65C] | 0.135
